Measured values as given in the Immune Epitope Database (IEDB).
One block for each sequence: values may come before it.

What was measured:
[1] = target: HLA-B*15:01; assay: IEDB peptide-MHC binding, purified MHC/direct/fluorescence; filed as Kd, often an IC50 or EC50 that approximates it; ≥ and ≤ were set here for values at or beyond the usual limits of such assays; conditions: source organism: SARS-CoV1
[2] = target: HLA-A*01:01; assay: as above; conditions: source organism: SARS-CoV1
[3] = target: HLA-B*58:01; assay: as above; conditions: source organism: SARS-CoV1
[4] = target: HLA-A*11:01; assay: as above; conditions: source organism: SARS-CoV1
[5] = target: HLA-A*03:01; assay: as above; conditions: source organism: SARS-CoV1
[6] = target: HLA-A*24:02; assay: IEDB peptide-MHC binding, purified MHC/competitive/radioactivity; filed as Kd, often an IC50 or EC50 that approximates it; ≥ and ≤ were set here for values at or beyond the usual limits of such assays
[7] = target: HLA-A*30:02; assay: as above
[8] = target: HLA-A*26:01; assay: as above
[9] = target: HLA-A*29:02; assay: as above
[10] = target: HLA-A*23:01; assay: as above
[11] = target: HLA-B*53:01; assay: as above
[12] = target: HLA-B*07:02; assay: IEDB peptide-MHC binding, purified MHC/direct/fluorescence; filed as Kd, often an IC50 or EC50 that approximates it; ≥ and ≤ were set here for values at or beyond the usual limits of such assays; conditions: source organism: Homo sapiens
[13] = target: HLA-A*69:01; assay: as above; conditions: source organism: Homo sapiens
[14] = target: HLA-A*01:01; assay: IEDB peptide-MHC binding, purified MHC/competitive/radioactivity; filed as Kd, often an IC50 or EC50 that approximates it; ≥ and ≤ were set here for values at or beyond the usual limits of such assays
[15] = target: HLA-A*33:01; assay: as above; conditions: source organism: SARS coronavirus Tor2
[16] = target: HLA-A*11:01; assay: as above; conditions: source organism: SARS coronavirus Tor2
[17] = target: HLA-A*68:01; assay: as above; conditions: source organism: SARS coronavirus Tor2
[18] = target: HLA-A*31:01; assay: as above; conditions: source organism: SARS coronavirus Tor2
[19] = target: HLA-A*03:01; assay: as above; conditions: source organism: SARS coronavirus Tor2
[20] = target: HLA-B*08:01; assay: as above
[21] = source organism: SARS coronavirus Tor2
[22] = source organism: Dengue virus 1 Brazil/97-11/1997
[23] = source organism: Mammarenavirus choriomeningitidis
[24] = source organism: Mammarenavirus guanaritoense
[25] = source organism: Vaccinia virus WR
[26] = source organism: Mammarenavirus whitewaterense

Sequence: LTDDMIAAY
Kd [1]: 636 nM
Kd [2]: 7 nM
Kd [3]: 6940 nM
Kd [4]: 4050 nM
Kd [5]: 19300 nM
Kd [6, 21]: ≥ 77600 nM
Kd [7, 21]: 326 nM
Kd [8, 21]: 1800 nM
Kd [9, 21]: 529 nM
Kd [10, 21]: ≥ 77800 nM

Sequence: MTTEDMLSVW
Kd [8, 22]: 2090 nM
Kd [11, 22]: 856 nM

Kd [12]: 5470 nM
Kd [13]: 7050 nM
Sequence: EPEPHILLF

Sequence: VKMPTHRHI
Kd [14, 23]: ≥ 78100 nM
Kd [6, 23]: ≥ 77500 nM
Kd [7, 23]: ≥ 76900 nM
Kd [8, 23]: ≥ 77900 nM
Kd [9, 23]: ≥ 78900 nM
Kd [10, 23]: ≥ 77700 nM

Sequence: KSAQCFKMFY
Kd [14, 21]: ≥ 89300 nM
Kd [6, 21]: 4700 nM
Kd [15]: 753 nM
Kd [7, 21]: ≥ 21200 nM
Kd [16]: 2250 nM
Kd [17]: 1450 nM
Kd [8, 21]: ≥ 86900 nM
Kd [9, 21]: 75.3 nM
Kd [10, 21]: 5090 nM
Kd [18]: 629 nM
Kd [19]: 5060 nM

Sequence: VRQMEGEGVL
Kd ([20]; source organism: Dengue virus 3 Sri Lanka/1266/2000): 1710 nM

Sequence: KYILIQAGF
Kd [6, 24]: 11.9 nM
Kd [9, 24]: 3740 nM
Kd [10, 24]: 1.77 nM

Sequence: DNAFNCTFEY
Kd [14, 21]: 4250 nM
Kd [6, 21]: ≥ 70300 nM
Kd [7, 21]: 382 nM
Kd [8, 21]: 132 nM
Kd [9, 21]: 14.4 nM
Kd [10, 21]: ≥ 70000 nM

Sequence: TPELEEEMF
Kd ([11]; source organism: Dengue virus 3 Martinique/1243/1999): 1970 nM

Sequence: HLRVLFSIF
Kd [20, 25]: 4.66 nM

Sequence: ALLSRFFNM
Kd [20, 25]: 2.96 nM

Sequence: LWLLWPVTL
Kd [14, 21]: ≥ 78100 nM
Kd [7, 21]: 5030 nM
Kd [8, 21]: ≥ 77900 nM
Kd [9, 21]: 1840 nM
Kd [10, 21]: 7.42 nM

Sequence: AYTSSDDEI
Kd [6, 26]: 4870 nM
Kd [9, 26]: 1590 nM
Kd [10, 26]: 1580 nM

Sequence: YNKQSLVSL
Kd [20, 25]: 30.1 nM
